What all share (format): cell-based
One assay deals with T1, ERα (Homo sapiens, UniProt P03372).
T1 construct: expressed in transfected cells; host or cells: COS-7
T1 sequence (P03372 1-595): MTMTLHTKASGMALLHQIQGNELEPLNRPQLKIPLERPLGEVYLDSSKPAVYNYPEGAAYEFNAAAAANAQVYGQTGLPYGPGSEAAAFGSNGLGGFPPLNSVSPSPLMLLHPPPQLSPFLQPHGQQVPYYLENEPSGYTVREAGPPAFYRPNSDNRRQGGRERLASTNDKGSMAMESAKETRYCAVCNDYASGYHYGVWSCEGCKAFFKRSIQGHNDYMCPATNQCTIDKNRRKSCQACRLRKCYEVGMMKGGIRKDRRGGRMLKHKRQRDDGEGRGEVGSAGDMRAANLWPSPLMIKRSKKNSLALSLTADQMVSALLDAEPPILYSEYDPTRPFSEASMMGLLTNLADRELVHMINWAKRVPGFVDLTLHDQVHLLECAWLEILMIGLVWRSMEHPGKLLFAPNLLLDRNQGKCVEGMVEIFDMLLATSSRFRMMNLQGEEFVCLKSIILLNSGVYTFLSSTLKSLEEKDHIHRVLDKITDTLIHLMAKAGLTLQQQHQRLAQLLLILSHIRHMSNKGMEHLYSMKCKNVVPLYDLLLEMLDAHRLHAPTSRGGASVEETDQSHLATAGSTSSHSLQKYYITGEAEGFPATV
The assay is described as follows: Transient transfection luciferase reporter, ERα transactivation in COS-7 cells. To be noted: coexpression in COS-7 cells, 10^−7M hormone, ERE3-TATA-pXP2 reporter. Here is the method:
(§1) All cell lines were cultured under the recommended conditions. COS-7 cells grown in […] in DMEM without phenol red, supplemented with 10% FBS were transfected in medium without serum with lipofectamine 2000 (Invitrogen, Burlington, Ont.) with 100 ng of nuclear receptor expression vectors as indicated, 200 ng of TIF-2 or TIF-2.1, as indicated, 250 ng of reporter plasmid, 250 ng of infemal control vector pCMV-βgal, and various concentrations of LCoR/pSG5 or LCoR-LSKAA/pSG5 expression vectors and pSG5 carrier. Medium was replaced 24 h after transfection by a medium containing charcoal-stripped serum and ligand (100 nM) and TSA (3 μM) for 18 h, as indicated. Cells were harvested in 200 […] of reporter lysis buffer (Promega).
(§2) COS-7 cells were cotransfected with expression vectors for ERα HEG0 (A and C) or GR (D) or PR (F) or VDR (H), ERE3-TATA-pXP2 (A and C), GRE5/pXP2 (D and F) or VDRE3tk/pXP2 (H) luciferase reporter vectors, pCMV-β-gal as internal control, and LCoR/pSG5 or LSKAA/pSG5 expression vectors as indicated. Cells were treated with 10^−7M of hormones (solid bars) or vehicle (open bars). Normalized luciferase activities (RLU) are the means±SEM from at least 3 experiments. […] Cells were transfected as in FIG. 5A with LCoR, TIF-2 or TIF2.1 as indicated. […]
A general note: Reporter assays use an easily measured gene product as a stand-in for the process of interest.

For a further assay, the system named is 5×17 mer-tk promoter. The assay is described as follows: GAL4-LCoR repression of 5×17 mer-tk promoter in COS-7 cells. Here is the method: as §1, §2
The next assay addresses T2, VDR (Homo sapiens, UniProt P11473).
T2 construct: expressed in transfected cells; host or cells: COS-7
T2 sequence (P11473 1-427): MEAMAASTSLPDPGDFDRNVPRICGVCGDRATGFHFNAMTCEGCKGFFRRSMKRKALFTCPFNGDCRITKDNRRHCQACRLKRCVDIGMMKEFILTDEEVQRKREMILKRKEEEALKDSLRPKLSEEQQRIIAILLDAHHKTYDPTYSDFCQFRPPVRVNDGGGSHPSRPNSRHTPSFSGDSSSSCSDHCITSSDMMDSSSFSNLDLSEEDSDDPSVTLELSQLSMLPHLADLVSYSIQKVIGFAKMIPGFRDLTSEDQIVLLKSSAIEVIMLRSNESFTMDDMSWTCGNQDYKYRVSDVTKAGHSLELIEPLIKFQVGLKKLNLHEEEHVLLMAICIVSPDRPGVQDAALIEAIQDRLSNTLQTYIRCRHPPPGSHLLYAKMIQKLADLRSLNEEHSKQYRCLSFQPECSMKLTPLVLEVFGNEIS
In words: Transient transfection luciferase reporter, VDR transactivation in COS-7 cells. The following applies: 1 μg of transfected LCoR, COS-7; one range given for GR, PR and VDR together. How it is done:
as §1, §2

The target of another assay is T3, GR (Homo sapiens, UniProt P04150).
T3 construct: expressed in transfected cells; host or cells: COS-7
T3 sequence (P04150 1-777): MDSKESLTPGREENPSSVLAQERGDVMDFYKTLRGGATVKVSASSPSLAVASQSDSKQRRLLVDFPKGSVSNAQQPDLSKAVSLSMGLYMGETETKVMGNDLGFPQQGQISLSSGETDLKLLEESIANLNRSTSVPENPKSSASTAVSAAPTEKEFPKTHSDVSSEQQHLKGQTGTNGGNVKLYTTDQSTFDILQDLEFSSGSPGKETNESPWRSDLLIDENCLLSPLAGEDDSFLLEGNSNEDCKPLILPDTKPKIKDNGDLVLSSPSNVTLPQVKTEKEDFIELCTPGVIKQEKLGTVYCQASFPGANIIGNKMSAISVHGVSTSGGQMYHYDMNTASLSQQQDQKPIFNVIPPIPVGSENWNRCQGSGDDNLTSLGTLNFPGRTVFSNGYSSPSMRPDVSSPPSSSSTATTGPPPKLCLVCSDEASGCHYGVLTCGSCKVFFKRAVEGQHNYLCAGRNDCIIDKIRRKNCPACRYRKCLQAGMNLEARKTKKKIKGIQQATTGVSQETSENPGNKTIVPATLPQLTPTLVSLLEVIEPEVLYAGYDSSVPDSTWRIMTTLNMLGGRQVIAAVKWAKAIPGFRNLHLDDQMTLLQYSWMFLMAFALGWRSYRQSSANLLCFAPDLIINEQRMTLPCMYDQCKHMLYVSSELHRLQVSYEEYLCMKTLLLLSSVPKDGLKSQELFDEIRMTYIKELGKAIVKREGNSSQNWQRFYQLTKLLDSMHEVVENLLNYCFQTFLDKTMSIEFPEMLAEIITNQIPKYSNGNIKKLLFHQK
The assay is described as follows: Transient transfection luciferase reporter, GR transactivation in COS-7 cells. The following applies: 1 μg of transfected LCoR, COS-7; one range given for GR, PR and VDR together. How it is done:
as §1, §2

A further assay concerns nuclear receptors. In words: Ligand-dependent transactivation by nuclear receptors (summary). Here is the method: as §1, §2
The target of another assay is T4, PR (Homo sapiens, UniProt P06401).
T4 construct: expressed in transfected cells; host or cells: COS-7
T4 sequence (P06401 1-933): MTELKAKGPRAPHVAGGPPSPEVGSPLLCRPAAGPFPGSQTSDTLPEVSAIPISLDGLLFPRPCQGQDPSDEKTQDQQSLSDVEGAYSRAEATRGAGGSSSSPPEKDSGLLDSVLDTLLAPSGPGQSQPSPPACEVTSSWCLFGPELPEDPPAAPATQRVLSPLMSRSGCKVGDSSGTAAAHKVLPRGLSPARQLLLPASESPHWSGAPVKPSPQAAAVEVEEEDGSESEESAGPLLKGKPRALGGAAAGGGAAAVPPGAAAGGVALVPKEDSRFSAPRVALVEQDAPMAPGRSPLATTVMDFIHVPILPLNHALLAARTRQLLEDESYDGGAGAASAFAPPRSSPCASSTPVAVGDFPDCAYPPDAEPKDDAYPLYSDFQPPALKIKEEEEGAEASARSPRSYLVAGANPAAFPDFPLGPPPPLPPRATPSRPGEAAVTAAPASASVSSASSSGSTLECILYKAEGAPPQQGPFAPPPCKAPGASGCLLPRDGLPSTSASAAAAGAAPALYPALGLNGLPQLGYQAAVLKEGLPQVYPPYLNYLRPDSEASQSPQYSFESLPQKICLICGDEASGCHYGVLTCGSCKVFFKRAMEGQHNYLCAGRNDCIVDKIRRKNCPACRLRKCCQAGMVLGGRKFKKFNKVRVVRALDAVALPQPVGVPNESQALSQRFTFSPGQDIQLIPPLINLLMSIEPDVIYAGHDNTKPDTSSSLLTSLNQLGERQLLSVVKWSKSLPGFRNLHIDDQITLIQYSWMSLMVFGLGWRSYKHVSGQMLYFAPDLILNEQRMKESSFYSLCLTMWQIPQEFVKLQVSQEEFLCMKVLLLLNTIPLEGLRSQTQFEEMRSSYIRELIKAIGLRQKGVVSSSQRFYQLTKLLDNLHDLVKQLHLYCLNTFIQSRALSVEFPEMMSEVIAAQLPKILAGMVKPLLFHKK
In words: Transient transfection luciferase reporter, PR transactivation in COS-7 cells. The following applies: 1 μg of transfected LCoR, COS-7; one range given for GR, PR and VDR together. Here is the method: as §1, §2

The target of assay [1] is T5, interaction of LCoR and ERα (Homo sapiens, UniProt P03372).
T5 construct: expressed in transfected cells; host or cells: COS-7
T5 sequence (P03372 1-595): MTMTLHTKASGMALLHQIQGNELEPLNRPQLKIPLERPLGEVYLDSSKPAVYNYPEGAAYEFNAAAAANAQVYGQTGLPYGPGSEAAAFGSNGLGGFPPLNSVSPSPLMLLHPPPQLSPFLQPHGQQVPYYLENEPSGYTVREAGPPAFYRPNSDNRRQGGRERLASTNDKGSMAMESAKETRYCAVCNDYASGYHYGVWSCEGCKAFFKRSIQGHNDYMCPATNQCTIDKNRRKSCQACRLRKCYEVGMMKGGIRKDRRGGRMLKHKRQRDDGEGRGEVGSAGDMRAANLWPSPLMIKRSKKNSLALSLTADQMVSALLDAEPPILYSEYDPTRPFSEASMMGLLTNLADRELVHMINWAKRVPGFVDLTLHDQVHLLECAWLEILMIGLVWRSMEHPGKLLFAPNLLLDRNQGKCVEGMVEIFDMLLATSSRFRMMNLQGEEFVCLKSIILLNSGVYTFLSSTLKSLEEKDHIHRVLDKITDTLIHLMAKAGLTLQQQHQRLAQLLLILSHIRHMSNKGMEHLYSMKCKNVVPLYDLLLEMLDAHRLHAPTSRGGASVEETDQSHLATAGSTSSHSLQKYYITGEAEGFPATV
In words: BRET assay of LCoR-ERα interaction in living COS-7 cells. The following applies: rluc-LCoR-LSKAA versus rluc-LCoR, COS-7 cells. Here is the method: Readings were started immediately after coelenterazine H addition, and 10 repeated measures were taken.
Interaction of ERα and LCoR in vivo was further tested by bioluminescence resonance energy transfer (BRET) in living COS-7 cells transiently cotransfected with plasmids expressing ERα-EYFP and LCoR-rluc fusion proteins. […] BRET ratios were calculated as described in experimental procedures.
For orientation: Bioluminescence resonance energy transfer reports proximity on the nanometre scale.

B1: LCoR: novel 433 amino acid nuclear receptor corepressor polypeptide (SEQ ID NO:2) with a single LXXLL NR box (protein, listed as Homo sapiens)
chain: MQRMIQQFAAEYTSKNSSTQDPSQPNSTKNQSLPKASPVTTSPTAATTQNPVLSKLLMADQDSPLDLTVRKSQSEPSEQDGVLDLSTKKSPCAGSTSLSHSPGCSSTQGNGRPGRPSQYRPDGLRSGDGVPPRSLQDGTREGFGHSTSLKVPLARSLQISEELLSRNQLSTAASLGPSGLQNHGQHLILSREASWAKPHYEFNLSRMKFRGNGALSNISDLPFLAENSAFPKMALQAKQDGKKDVSHSSPVDLKIPQVRGMDLSWESRTGDQYSYSSLVMGSQTESALSKKLRAILPKQSRKSMLDAGPDSWGSDAEQSTPGQPYPTSDQEGDPGSKQPRKKRGRYRQYNSEILEEAISVVMSGKMSVSKAQSIYGIPHSTLEYKVKERLGTLKNPPKKKMKLMRSEGPDVSVKIELDPQGEAAQSANESKNE
With B1, in the assay with ERα, the “repression of hormone-dependent transactivation by ERα” value was “dose-dependent repression”. For the same molecule, the “effect on the 5×17 mer-tk promoter” value in the assay on 5×17 mer-tk promoter is listed as “had no effect”. Also, in the assay with VDR, the “repression of ligand-activated transcription, vitamin D receptor” value was 2.2-5 fold. Moreover, the “repression of ligand-activated transcription, glucocorticoid receptor” value with GR is listed as 2.2-5 fold. Also, in the assay with nuclear receptors, the “inhibition of ligand-dependent transactivation by nuclear receptors” value is given as “up to 5 fold”. Besides, in the assay with PR, the “repression of ligand-activated transcription, progesterone receptor” value is on record as 2.2-5 fold.

B2: LCoR-LSKAA: LCoR with point mutagenesis of NR box LSKLL to LSKAA at position 53 (protein)
chain: MQRMIQQFAAEYTSKNSSTQDPSQPNSTKNQSLPKASPVTTSPTAATTQNPVLSKAAMADQDSPLDLTVRKSQSEPSEQDGVLDLSTKKSPCAGSTSLSHSPGCSSTQGNGRPGRPSQYRPDGLRSGDGVPPRSLQDGTREGFGHSTSLKVPLARSLQISEELLSRNQLSTAASLGPSGLQNHGQHLILSREASWAKPHYEFNLSRMKFRGNGALSNISDLPFLAENSAFPKMALQAKQDGKKDVSHSSPVDLKIPQVRGMDLSWESRTGDQYSYSSLVMGSQTESALSKKLRAILPKQSRKSMLDAGPDSWGSDAEQSTPGQPYPTSDQEGDPGSKQPRKKRGRYRQYNSEILEEAISVVMSGKMSVSKAQSIYGIPHSTLEYKVKERLGTLKNPPKKKMKLMRSEGPDVSVKIELDPQGEAAQSANESKNE
As to B2, the “repression of hormone-dependent transactivation by ERα” value with ERα is “had no effect”. For the same molecule, in assay [1], the “effect of NR box mutation on interaction with ERα (BRET)” value is “largely disrupted hormone-dependent interaction and reduced hormone-independent interaction of the two proteins by approximately two-fold”.

(Values after patent publication US20070054353A1, “Nuclear receptor transcriptional corepressor and uses thereof” (priority 2002, published 2007).)
